From the RNAGym collection of RNA variant scans (doi:10.1021/acssynbio.7b00057)

B1: Pistol ribozyme (parent)
chain: GGGUCGUUGUUCCAUAAUCGCGUGGAUAUGGCACGCAAGUUUCUACCGGGCACCGUAAAUGUCCGACUGGAGCCGUUCGGGCGGCUAUAAACAGACCUCAGGCCCGAAGCGUGGCGGCACCUGCCGCCGGUGGUAAAAAAGAUCGGAAGAGCACACGUCU

Variants of: B1
Assay: aptazyme ON/OFF ratio, guanine; higher = stronger switching; co-transcriptional cleavage with and without guanine

Point of comparison: GGGUCGUCUUUAGAUAAUCGCGUGGAUAUGGCACGCAAGUUUCUACCGGGCACCGUAAAUGUCCGACUGGAGCCGUUCGGGCGGCUAUAAACAGACCUCAGGCCCGAAGCGUGGCGGCACCUGCCGCCGGUGGUAAAAAAGAUCGGAAGAGCACACGUCU, “aptazyme ON/OFF ratio” value 1.12. Against it:
- GGGUCGUCCUCUAAUAAUCGCGUGGAUAUGGCACGCAAGUUUCUACCGGGCACCGUAAAUGUCCGACUGGAGCCGUUCGGGCGGCUAUAAACAGACCUCAGGCCCGAAGCGUGGCGGCACCUGCCGCCGGUGGUAAAAAAGAUCGGAAGAGCACACGUCU — lower, 1.05
- GGGUCGUCCUCUGAUAAUCGCGUGGAUAUGGCACGCAAGUUUCUACCGGGCACCGUAAAUGUCCGACUGGAGCCGUUCGGGCGGCUAUAAACAGACCUCAGGCCCGAAGCGUGGCGGCACCUGCCGCCGGUGGUAAAAAAGAUCGGAAGAGCACACGUCU — lower, 1.02
- GGGUCGUCCUCUUAUAAUCGCGUGGAUAUGGCACGCAAGUUUCUACCGGGCACCGUAAAUGUCCGACUGGAGCCGUUCGGGCGGCUAUAAACAGACCUCAGGCCCGAAGCGUGGCGGCACCUGCCGCCGGUGGUAAAAAAGAUCGGAAGAGCACACGUCU — lower, 1.07
- GGGUCGUCUUUACAUAAUCGCGUGGAUAUGGCACGCAAGUUUCUACCGGGCACCGUAAAUGUCCGACUGGAGCCGUUCGGGCGGCUAUAAACAGACCUCAGGCCCGAAGCGUGGCGGCACCUGCCGCCGGUGGUAAAAAAGAUCGGAAGAGCACACGUCU — higher, 1.37
- GGGUCGUCUUUCCAUAAUCGCGUGGAUAUGGCACGCAAGUUUCUACCGGGCACCGUAAAUGUCCGACUGGAGCCGUUCGGGCGGCUAUAAACAGACCUCAGGCCCGAAGCGUGGCGGCACCUGCCGCCGGUGGUAAAAAAGAUCGGAAGAGCACACGUCU — higher, 2.46
- GGGUCGUCCUGAUAUAAUCGCGUGGAUAUGGCACGCAAGUUUCUACCGGGCACCGUAAAUGUCCGACUGGAGCCGUUCGGGCGGCUAUAAACAGACCUCAGGCCCGAAGCGUGGCGGCACCUGCCGCCGGUGGUAAAAAAGAUCGGAAGAGCACACGUCU — lower, 1.1
- GGGUCGUCCUGAAAUAAUCGCGUGGAUAUGGCACGCAAGUUUCUACCGGGCACCGUAAAUGUCCGACUGGAGCCGUUCGGGCGGCUAUAAACAGACCUCAGGCCCGAAGCGUGGCGGCACCUGCCGCCGGUGGUAAAAAAGAUCGGAAGAGCACACGUCU — lower, 1.09
- GGGUCGUCCUGAGAUAAUCGCGUGGAUAUGGCACGCAAGUUUCUACCGGGCACCGUAAAUGUCCGACUGGAGCCGUUCGGGCGGCUAUAAACAGACCUCAGGCCCGAAGCGUGGCGGCACCUGCCGCCGGUGGUAAAAAAGAUCGGAAGAGCACACGUCU — higher, 1.14
- GGGUCGUCUUUAAAUAAUCGCGUGGAUAUGGCACGCAAGUUUCUACCGGGCACCGUAAAUGUCCGACUGGAGCCGUUCGGGCGGCUAUAAACAGACCUCAGGCCCGAAGCGUGGCGGCACCUGCCGCCGGUGGUAAAAAAGAUCGGAAGAGCACACGUCU — higher, 1.28
- GGGUCGUCCUGCGAUAAUCGCGUGGAUAUGGCACGCAAGUUUCUACCGGGCACCGUAAAUGUCCGACUGGAGCCGUUCGGGCGGCUAUAAACAGACCUCAGGCCCGAAGCGUGGCGGCACCUGCCGCCGGUGGUAAAAAAGAUCGGAAGAGCACACGUCU — higher, 1.19
- GGGUCGUCCUGCUAUAAUCGCGUGGAUAUGGCACGCAAGUUUCUACCGGGCACCGUAAAUGUCCGACUGGAGCCGUUCGGGCGGCUAUAAACAGACCUCAGGCCCGAAGCGUGGCGGCACCUGCCGCCGGUGGUAAAAAAGAUCGGAAGAGCACACGUCU — lower, 1.1
- GGGUCGUCCUGCAAUAAUCGCGUGGAUAUGGCACGCAAGUUUCUACCGGGCACCGUAAAUGUCCGACUGGAGCCGUUCGGGCGGCUAUAAACAGACCUCAGGCCCGAAGCGUGGCGGCACCUGCCGCCGGUGGUAAAAAAGAUCGGAAGAGCACACGUCU — lower, 1.09
- GGGUCGUCCUCGUAUAAUCGCGUGGAUAUGGCACGCAAGUUUCUACCGGGCACCGUAAAUGUCCGACUGGAGCCGUUCGGGCGGCUAUAAACAGACCUCAGGCCCGAAGCGUGGCGGCACCUGCCGCCGGUGGUAAAAAAGAUCGGAAGAGCACACGUCU — higher, 1.15
- GGGUCGUCCUCGGAUAAUCGCGUGGAUAUGGCACGCAAGUUUCUACCGGGCACCGUAAAUGUCCGACUGGAGCCGUUCGGGCGGCUAUAAACAGACCUCAGGCCCGAAGCGUGGCGGCACCUGCCGCCGGUGGUAAAAAAGAUCGGAAGAGCACACGUCU — higher, 1.26
- GGGUCGUCCUCGAAUAAUCGCGUGGAUAUGGCACGCAAGUUUCUACCGGGCACCGUAAAUGUCCGACUGGAGCCGUUCGGGCGGCUAUAAACAGACCUCAGGCCCGAAGCGUGGCGGCACCUGCCGCCGGUGGUAAAAAAGAUCGGAAGAGCACACGUCU — higher, 1.2
- GGGUCGUCCUGUGAUAAUCGCGUGGAUAUGGCACGCAAGUUUCUACCGGGCACCGUAAAUGUCCGACUGGAGCCGUUCGGGCGGCUAUAAACAGACCUCAGGCCCGAAGCGUGGCGGCACCUGCCGCCGGUGGUAAAAAAGAUCGGAAGAGCACACGUCU — lower, 1.11
- GGGUCGUCCUGUUAUAAUCGCGUGGAUAUGGCACGCAAGUUUCUACCGGGCACCGUAAAUGUCCGACUGGAGCCGUUCGGGCGGCUAUAAACAGACCUCAGGCCCGAAGCGUGGCGGCACCUGCCGCCGGUGGUAAAAAAGAUCGGAAGAGCACACGUCU — lower, 1.1
- GGGUCGUCCUGUAAUAAUCGCGUGGAUAUGGCACGCAAGUUUCUACCGGGCACCGUAAAUGUCCGACUGGAGCCGUUCGGGCGGCUAUAAACAGACCUCAGGCCCGAAGCGUGGCGGCACCUGCCGCCGGUGGUAAAAAAGAUCGGAAGAGCACACGUCU — lower, 1.09
- GGGUCGUCCUCCCAUAAUCGCGUGGAUAUGGCACGCAAGUUUCUACCGGGCACCGUAAAUGUCCGACUGGAGCCGUUCGGGCGGCUAUAAACAGACCUCAGGCCCGAAGCGUGGCGGCACCUGCCGCCGGUGGUAAAAAAGAUCGGAAGAGCACACGUCU — lower, 1.06
- GGGUCGUCCUGCCAUAAUCGCGUGGAUAUGGCACGCAAGUUUCUACCGGGCACCGUAAAUGUCCGACUGGAGCCGUUCGGGCGGCUAUAAACAGACCUCAGGCCCGAAGCGUGGCGGCACCUGCCGCCGGUGGUAAAAAAGAUCGGAAGAGCACACGUCU — lower, 1.03
- GGGUCGUCCUCCGAUAAUCGCGUGGAUAUGGCACGCAAGUUUCUACCGGGCACCGUAAAUGUCCGACUGGAGCCGUUCGGGCGGCUAUAAACAGACCUCAGGCCCGAAGCGUGGCGGCACCUGCCGCCGGUGGUAAAAAAGAUCGGAAGAGCACACGUCU — lower, 1.04
- GGGUCGUCCUCCUAUAAUCGCGUGGAUAUGGCACGCAAGUUUCUACCGGGCACCGUAAAUGUCCGACUGGAGCCGUUCGGGCGGCUAUAAACAGACCUCAGGCCCGAAGCGUGGCGGCACCUGCCGCCGGUGGUAAAAAAGAUCGGAAGAGCACACGUCU — lower, 1.04
- GGGUCGUCCUCCAAUAAUCGCGUGGAUAUGGCACGCAAGUUUCUACCGGGCACCGUAAAUGUCCGACUGGAGCCGUUCGGGCGGCUAUAAACAGACCUCAGGCCCGAAGCGUGGCGGCACCUGCCGCCGGUGGUAAAAAAGAUCGGAAGAGCACACGUCU — lower, 1.11
- GGGUCGUCCUGGUAUAAUCGCGUGGAUAUGGCACGCAAGUUUCUACCGGGCACCGUAAAUGUCCGACUGGAGCCGUUCGGGCGGCUAUAAACAGACCUCAGGCCCGAAGCGUGGCGGCACCUGCCGCCGGUGGUAAAAAAGAUCGGAAGAGCACACGUCU — lower, 1.09
- GGGUCGUCCUGGAAUAAUCGCGUGGAUAUGGCACGCAAGUUUCUACCGGGCACCGUAAAUGUCCGACUGGAGCCGUUCGGGCGGCUAUAAACAGACCUCAGGCCCGAAGCGUGGCGGCACCUGCCGCCGGUGGUAAAAAAGAUCGGAAGAGCACACGUCU — the same, 1.12
- GGGUCGUCCUGGGAUAAUCGCGUGGAUAUGGCACGCAAGUUUCUACCGGGCACCGUAAAUGUCCGACUGGAGCCGUUCGGGCGGCUAUAAACAGACCUCAGGCCCGAAGCGUGGCGGCACCUGCCGCCGGUGGUAAAAAAGAUCGGAAGAGCACACGUCU — the same, 1.12
- GGGUCGUCCUCACAUAAUCGCGUGGAUAUGGCACGCAAGUUUCUACCGGGCACCGUAAAUGUCCGACUGGAGCCGUUCGGGCGGCUAUAAACAGACCUCAGGCCCGAAGCGUGGCGGCACCUGCCGCCGGUGGUAAAAAAGAUCGGAAGAGCACACGUCU — lower, 1.08
- GGGUCGUCCUCUCAUAAUCGCGUGGAUAUGGCACGCAAGUUUCUACCGGGCACCGUAAAUGUCCGACUGGAGCCGUUCGGGCGGCUAUAAACAGACCUCAGGCCCGAAGCGUGGCGGCACCUGCCGCCGGUGGUAAAAAAGAUCGGAAGAGCACACGUCU — lower, 1.08
- GGGUCGUCCUCGCAUAAUCGCGUGGAUAUGGCACGCAAGUUUCUACCGGGCACCGUAAAUGUCCGACUGGAGCCGUUCGGGCGGCUAUAAACAGACCUCAGGCCCGAAGCGUGGCGGCACCUGCCGCCGGUGGUAAAAAAGAUCGGAAGAGCACACGUCU — higher, 1.26
- GGGUCGUCCUCAAAUAAUCGCGUGGAUAUGGCACGCAAGUUUCUACCGGGCACCGUAAAUGUCCGACUGGAGCCGUUCGGGCGGCUAUAAACAGACCUCAGGCCCGAAGCGUGGCGGCACCUGCCGCCGGUGGUAAAAAAGAUCGGAAGAGCACACGUCU — lower, 1.03
- GGGUCGUCCUCAUAUAAUCGCGUGGAUAUGGCACGCAAGUUUCUACCGGGCACCGUAAAUGUCCGACUGGAGCCGUUCGGGCGGCUAUAAACAGACCUCAGGCCCGAAGCGUGGCGGCACCUGCCGCCGGUGGUAAAAAAGAUCGGAAGAGCACACGUCU — lower, 1.06
- GGGUCGUCCUCAGAUAAUCGCGUGGAUAUGGCACGCAAGUUUCUACCGGGCACCGUAAAUGUCCGACUGGAGCCGUUCGGGCGGCUAUAAACAGACCUCAGGCCCGAAGCGUGGCGGCACCUGCCGCCGGUGGUAAAAAAGAUCGGAAGAGCACACGUCU — lower, 1.07
- GGGUCGUCCUGUCAUAAUCGCGUGGAUAUGGCACGCAAGUUUCUACCGGGCACCGUAAAUGUCCGACUGGAGCCGUUCGGGCGGCUAUAAACAGACCUCAGGCCCGAAGCGUGGCGGCACCUGCCGCCGGUGGUAAAAAAGAUCGGAAGAGCACACGUCU — the same, 1.12
- GGGUCGUCCUGGCAUAAUCGCGUGGAUAUGGCACGCAAGUUUCUACCGGGCACCGUAAAUGUCCGACUGGAGCCGUUCGGGCGGCUAUAAACAGACCUCAGGCCCGAAGCGUGGCGGCACCUGCCGCCGGUGGUAAAAAAGAUCGGAAGAGCACACGUCU — higher, 1.19
- GGGUCGUCCUGACAUAAUCGCGUGGAUAUGGCACGCAAGUUUCUACCGGGCACCGUAAAUGUCCGACUGGAGCCGUUCGGGCGGCUAUAAACAGACCUCAGGCCCGAAGCGUGGCGGCACCUGCCGCCGGUGGUAAAAAAGAUCGGAAGAGCACACGUCU — higher, 1.13
